Substitutions are numbered along the chain they refer to.
B1: anti-IL-12Rβ2-VHH-FcDE clone 21060 (Fc fusion)
chain: QVQLQESGGGLVQAGGSLSLSCAASGSAFRLNFMGWYRQAPGKQRELVAAINSGGTEIYHDSVKGRFTISRDNADSTVWLQMNSLKPDDTAVYYCAADRGISWSKLAGGMDYWGKGTQVTVSSAPELLGGPDVFLFPPKPKDTLMISRTPEVTCVVVDVSHEDPEVKFNWYVDGVEVHNAKTKPREEQYNSTYRVVSVLTVLHQDWLNGKEYKCKVSNKALPAPEEKTISKAKGQPREPQVYTLPPSRDELTKNQVSLTCLVKGFYPSDIAVEWESNGQPENNYKTTPPVLDSDGSFFLYSKLTVDKSRWQQGNVFSCSVMHEALHNHYTQKSLSLSPGK
B2: 20415-FcDE (Fc fusion)
VHH-Fc chain: QVQLQESGGGLVQPGGSLRLSCTASGSIVSIYNMDWYRQAPGNEREWVASITSSGDPYYDGSAKGRFTISRDNAKMTVYLQMNSLKPEDTAVYYCKVPTEKGNYWGQGTQVTVSSAPELLGGPDVFLFPPKPKDTLMISRTPEVTCVVVDVSHEDPEVKFNWYVDGVEVHNAKTKPREEQYNSTYRVVSVLTVLHQDWLNGKEYKCKVSNKALPAPEEKTISKAKGQPREPQVYTLPPSRDELTKNQVSLTCLVKGFYPSDIAVEWESNGQPENNYKTTPPVLDSDGSFFLYSKLTVDKSRWQQGNVFSCSVMHEALHNHYTQKSLSLSPGK
B3: 20422-FcDE (Fc fusion)
VHH-Fc chain: B2 VHH-Fc chain with K86E, Y94F
B4: anti-IL-12Rβ2-VHH-Fc clone 20432 with a wildtype IgG1 Fc sequence (Fc fusion)
chain: QVQLQESGGGLVQPGGSLRLSCAASGFTFSTSGMHWFRQAPGKGLEWVSSIGATVDNSYYASSVKGRFTISRDNAKNTLYLLMNSLKSEDTAVYYCSKDPTGSSRGQGTQVTVSSAPELLGGPSVFLFPPKPKDTLMISRTPEVTCVVVDVSHEDPEVKFNWYVDGVEVHNAKTKPREEQYNSTYRVVSVLTVLHQDWLNGKEYKCKVSNKALPAPIEKTISKAKGQPREPQVYTLPPSRDELTKNQVSLTCLVKGFYPSDIAVEWESNGQPENNYKTTPPVLDSDGSFFLYSKLTVDKSRWQQGNVFSCSVMHEALHNHYTQKSLSLSPGK
B5: 20421-FcDE (Fc fusion)
VHH-Fc chain: QVQLQESGGGLVQPGGSLRLSCAASGFTFSTYAMSWVRQAPGKGLEWVSAVNSGGLSTDYADSVEGRFTISRDDAKNMLFLQMNRLKPEDTARYYCAKYEDCSDYVCDRAGYWGQGTQVTVSSAPELLGGPDVFLFPPKPKDTLMISRTPEVTCVVVDVSHEDPEVKFNWYVDGVEVHNAKTKPREEQYNSTYRVVSVLTVLHQDWLNGKEYKCKVSNKALPAPEEKTISKAKGQPREPQVYTLPPSRDELTKNQVSLTCLVKGFYPSDIAVEWESNGQPENNYKTTPPVLDSDGSFFLYSKLTVDKSRWQQGNVFSCSVMHEALHNHYTQKSLSLSPGK
B6: anti-IL-12Rβ2-VHH-FcDE clone 20407 (Fc fusion)
chain: QVQLQESGGGLVQPGGSLRLTCVASGFPFSTHAMSWVRQPPGKGREWISAINSGGDSTDYADSVMGRFTISRDNAKNTVYLQMNSLKSEDTAAYYCAKYEDCSDYDCSSRASWGQGTQVTVSSAPELLGGPDVFLFPPKPKDTLMISRTPEVTCVVVDVSHEDPEVKFNWYVDGVEVHNAKTKPREEQYNSTYRVVSVLTVLHQDWLNGKEYKCKVSNKALPAPEEKTISKAKGQPREPQVYTLPPSRDELTKNQVSLTCLVKGFYPSDIAVEWESNGQPENNYKTTPPVLDSDGSFFLYSKLTVDKSRWQQGNVFSCSVMHEALHNHYTQKSLSLSPGK
B7: anti-IL-12Rβ2-VHH-FcDE clone 21050 (Fc fusion)
chain: QVQLQESGGGLVQAGGSLRLSCAASGRTFNNYAMAWFRQAPGKEREFIAAITRSDTTLYIDSVKGRFTISRDNAKNTVALQMNSLKPEDTAVYYCAAGMPYSYSDYPRDSKYDYWGRGTQVTVSSAPELLGGPDVFLFPPKPKDTLMISRTPEVTCVVVDVSHEDPEVKFNWYVDGVEVHNAKTKPREEQYNSTYRVVSVLTVLHQDWLNGKEYKCKVSNKALPAPEEKTISKAKGQPREPQVYTLPPSRDELTKNQVSLTCLVKGFYPSDIAVEWESNGQPENNYKTTPPVLDSDGSFFLYSKLTVDKSRWQQGNVFSCSVMHEALHNHYTQKSLSLSPGK
B8: anti-IL-12Rβ2-VHH-FcDE clone 20438 (Fc fusion)
chain: QVQLQESGGGLVQPGGSLRLSCTASGFAFSTYWMYWIRQSPEKGFEWVSVVNTGGDITYYADSVKGRFTISRDNAKNTLYLQMNSLKPEDTALYYCARDRTTMSYTRTYYRGGQGTQVTVSSAPELLGGPDVFLFPPKPKDTLMISRTPEVTCVVVDVSHEDPEVKFNWYVDGVEVHNAKTKPREEQYNSTYRVVSVLTVLHQDWLNGKEYKCKVSNKALPAPEEKTISKAKGQPREPQVYTLPPSRDELTKNQVSLTCLVKGFYPSDIAVEWESNGQPENNYKTTPPVLDSDGSFFLYSKLTVDKSRWQQGNVFSCSVMHEALHNHYTQKSLSLSPGK
B9: 20429-FcDE (Fc fusion)
VHH-Fc chain: QVQLQESGGGLVQPGGSLRLSCKASGFTFSTYAMSWVRQAPGKGLEWVSAVNSGGLSTDYADSVEGRFTISRDDAKNMLFLQMNSLKPEDTARYYCAKYEDCSDYMCHRDRAGYWGQGTQVTVSSAPELLGGPDVFLFPPKPKDTLMISRTPEVTCVVVDVSHEDPEVKFNWYVDGVEVHNAKTKPREEQYNSTYRVVSVLTVLHQDWLNGKEYKCKVSNKALPAPEEKTISKAKGQPREPQVYTLPPSRDELTKNQVSLTCLVKGFYPSDIAVEWESNGQPENNYKTTPPVLDSDGSFFLYSKLTVDKSRWQQGNVFSCSVMHEALHNHYTQKSLSLSPGK
B10: anti-IL-12Rβ2-VHH-FcDE clone 21053 (Fc fusion)
chain: QVQLQESGGGLVQAGGSLRLSCAASGRTFSNYAMAWFRQAPGTEREFVAGLSGSGGDTEFYDDSVKGRFAISRDSAKNTVWLQMNSLKPEDTAVYYCAAATHVVVHYGLVRRRGTYDYWGQGTQVTVSSAPELLGGPDVFLFPPKPKDTLMISRTPEVTCVVVDVSHEDPEVKFNWYVDGVEVHNAKTKPREEQYNSTYRVVSVLTVLHQDWLNGKEYKCKVSNKALPAPEEKTISKAKGQPREPQVYTLPPSRDELTKNQVSLTCLVKGFYPSDIAVEWESNGQPENNYKTTPPVLDSDGSFFLYSKLTVDKSRWQQGNVFSCSVMHEALHNHYTQKSLSLSPGK
B11: 20401-FcDE (Fc fusion)
VHH-Fc chain: QVQLQESGGGLVQAGESLTLSCIASGVIKDYAMGWFRQAPGKEREFVAAISWSGVSIYYADSVKGRFTISRDNAKNTVYLQMNSLEPEDTAVYYCAGTEGAYTVAGGSTFGYDMDYWGKGTQVTVSSAPELLGGPDVFLFPPKPKDTLMISRTPEVTCVVVDVSHEDPEVKFNWYVDGVEVHNAKTKPREEQYNSTYRVVSVLTVLHQDWLNGKEYKCKVSNKALPAPEEKTISKAKGQPREPQVYTLPPSRDELTKNQVSLTCLVKGFYPSDIAVEWESNGQPENNYKTTPPVLDSDGSFFLYSKLTVDKSRWQQGNVFSCSVMHEALHNHYTQKSLSLSPGK
B12: 20400-FcDE (Fc fusion)
VHH-Fc chain: QVQLQESGGGLVQPGGSLRLSCAASGRTINAYIMGWFRQAPGKEREFVAAVSGSGGSTYYADSVKGRFTISRDNAKNTVNLQMDNLRSEDTDVYYCAATYESVYLQNPGQYDYWGQGTQVTVSSAPELLGGPDVFLFPPKPKDTLMISRTPEVTCVVVDVSHEDPEVKFNWYVDGVEVHNAKTKPREEQYNSTYRVVSVLTVLHQDWLNGKEYKCKVSNKALPAPEEKTISKAKGQPREPQVYTLPPSRDELTKNQVSLTCLVKGFYPSDIAVEWESNGQPENNYKTTPPVLDSDGSFFLYSKLTVDKSRWQQGNVFSCSVMHEALHNHYTQKSLSLSPGK

The binders below were run against T1, human IL-12Rβ2 expressed on cells (human, UniProt Q99665 24-862) (assay: cell-based or functional assay).
T1 sequence: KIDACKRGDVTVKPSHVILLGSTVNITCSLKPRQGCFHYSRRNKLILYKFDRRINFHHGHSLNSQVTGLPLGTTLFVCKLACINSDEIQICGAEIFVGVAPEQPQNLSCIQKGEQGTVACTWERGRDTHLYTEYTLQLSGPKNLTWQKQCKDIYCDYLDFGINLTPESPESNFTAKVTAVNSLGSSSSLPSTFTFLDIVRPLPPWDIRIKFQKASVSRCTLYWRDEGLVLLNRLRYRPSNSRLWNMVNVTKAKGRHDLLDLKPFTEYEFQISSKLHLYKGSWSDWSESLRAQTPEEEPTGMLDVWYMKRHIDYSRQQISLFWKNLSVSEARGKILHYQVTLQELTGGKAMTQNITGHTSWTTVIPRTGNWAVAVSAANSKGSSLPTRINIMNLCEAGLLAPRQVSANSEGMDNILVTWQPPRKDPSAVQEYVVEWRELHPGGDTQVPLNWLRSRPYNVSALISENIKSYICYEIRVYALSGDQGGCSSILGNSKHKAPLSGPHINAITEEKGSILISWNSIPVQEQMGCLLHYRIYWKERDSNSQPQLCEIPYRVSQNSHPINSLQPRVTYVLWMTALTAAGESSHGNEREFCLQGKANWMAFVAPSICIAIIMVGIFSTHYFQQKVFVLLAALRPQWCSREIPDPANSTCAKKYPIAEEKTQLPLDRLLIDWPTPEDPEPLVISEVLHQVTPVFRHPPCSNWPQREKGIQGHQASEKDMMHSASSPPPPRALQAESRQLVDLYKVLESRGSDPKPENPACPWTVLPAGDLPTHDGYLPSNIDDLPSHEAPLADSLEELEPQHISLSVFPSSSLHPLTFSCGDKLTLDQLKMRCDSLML
For B1, the “% Specific Cell Lysis at 0.025 ug/mL” value was 63.9%, the “% Specific Cell Lysis at 0.5 ug/mL” value was 73.5% and the “% Specific Cell Lysis at 10 ug/mL” value was 75.5%.
In the case of B2, the “% Specific Cell Lysis at 0.00125 ug/mL” value is reported as 52.8%, the “% Specific Cell Lysis at 0.025 ug/mL” value is reported as 61.1% and the “% Specific Cell Lysis at 0.5 ug/mL” value is reported as 68.8%. For the same binder, the “% Specific Cell Lysis at 10 ug/mL” value was 77.9%.
B3 was tested, and the “% Specific Cell Lysis at 0.5 ug/mL” value was 65.8% and the “% Specific Cell Lysis at 10 ug/mL” value was 67.3%.
In the case of B4, the “% Specific Cell Lysis at 0.025 ug/mL” value is reported as 54.3%.
For B5, the “% Specific Cell Lysis at 0.00125 ug/mL” value was 61.3%, the “% Specific Cell Lysis at 0.025 ug/mL” value was 65.9% and the “% Specific Cell Lysis at 0.5 ug/mL” value was 67.7%. The “% Specific Cell Lysis at 10 ug/mL” value was 69%.
In the case of B6, the “% Specific Cell Lysis at 0.00125 ug/mL” value is reported as 63.3%, the “% Specific Cell Lysis at 0.025 ug/mL” value is reported as 66.5% and the “% Specific Cell Lysis at 0.5 ug/mL” value is reported as 71.7%. For the same binder, the “% Specific Cell Lysis at 10 ug/mL” value was 66.2%.
With B7 the “% Specific Cell Lysis at 0.00125 ug/mL” value was 42.4%, the “% Specific Cell Lysis at 0.025 ug/mL” value was 50.1% and the “% Specific Cell Lysis at 0.5 ug/mL” value was 61.3%. For the same binder, the “% Specific Cell Lysis at 10 ug/mL” value was 63.7%.
For B8, the “% Specific Cell Lysis at 0.00125 ug/mL” value was 49.5%, the “% Specific Cell Lysis at 0.5 ug/mL” value was 63.4% and the “% Specific Cell Lysis at 10 ug/mL” value was 66.9%.
For B9, the “% Specific Cell Lysis at 0.00125 ug/mL” value was 59%, the “% Specific Cell Lysis at 0.5 ug/mL” value was 67.7% and the “% Specific Cell Lysis at 10 ug/mL” value was 67.3%.
In the case of B10, the “% Specific Cell Lysis at 0.00125 ug/mL” value is reported as 46.5%, the “% Specific Cell Lysis at 0.025 ug/mL” value is reported as 51.6% and the “% Specific Cell Lysis at 0.5 ug/mL” value is reported as 64.7%. The “% Specific Cell Lysis at 10 ug/mL” value was 73.3%.
For B11, the “% Specific Cell Lysis at 0.00125 ug/mL” value was 48%, the “% Specific Cell Lysis at 0.025 ug/mL” value was 47.5% and the “% Specific Cell Lysis at 10 ug/mL” value was 64.9%.
For B12, the “% Specific Cell Lysis at 0.00125 ug/mL” value was 45.4% and the “% Specific Cell Lysis at 0.025 ug/mL” value was 47.6%.
